Experimental data taken from the DeepSol protein solubility set.

Assay: soluble on expression in E. coli; label from the status in PepcDB or PDB records

Sequence	soluble on expression in E. coli
MKLFQVLIISMICLALVEERRDRSNRRRNQSEGGSRSRSESWLGSSGSSRSRSSGRSAASAGSSQAASPAGASAIGSSQAGSSAGSPAAAAAGGSGGADAGAILNGVGGLMRSVGGLAGAAGGAAGGAAGAPAGAPAGASAGASAAPAAQDAGTVLGGVSGVLTGVSGIVSAAGAAKA	not soluble
MSLEEPRGINYVELSTDDLGTLTRQMHQLGFQFIGYHRSKPHVQLWLRGQARIIVSEVTEEAGTTSAPVNGTFLRGIGFEVTDSQSAMDRAALLHAEEVPRDQAHDDEVLRGVFAPDGSEVFFHQFDAATPAWIKEFGHDHDEQVSHIDHVNLAQPSNHYDEAVLFYTSLLALHAQSSQDVPSPSGLVRSQVMSSTDGSVRMPLNVSPQPNAEAVAGRGIGSVVEAYPEHVAVACEDIFQAAATALSRGLDFLPVPQNYYEDLDSRFDLDLEFLQRLQENHVLYDRDEHGEFLHFYTSTIGSVFFEMIERRGDYLGFGAPDAPVRLAAQHRKNSQREGHHHHHH	not soluble
MGSDKIHHHHHHMSEKKKVLMLHGFVQSDKIFSAKTGGLRKNLKKLGYDLYYPCAPHSIDKKALFQSESEKGRDAAKEFNTSATSDEVYGWFFRNPESFNSFQIDQKVFNYLRNYVLENGPFDGVIGFSQGAGLGGYLVTDFNRILNLTDEQQPALKFFISFSGFKLEDQSYQKEYHRIIQVPSLHVRGELDEVVAESRIMALYESWPDNKRTLLVHPGAHFVPNSKPFVSQVCNWIQGITSKEGQEHNAQPEVDRKQFDKPQLEDDLLDMIDSLGKL	not soluble
PAWWGERAHPISEGGRGSAWFVEASFGNAVLRQYRRGGMIAMLNRDRYFWCGGHRTRSVLEFRLMRELISRGLPVPTPLAACYVRHGVQYRAAILMERLEGVSSLAMCVRGNSKEIHWEQIGRMISRFHREGLDHADLNAHNILLDQAGQCWLIDFDRGALRIPATKWREHNLARLLRSLLKIRGERSVDAVYRDFERLCRAY	not soluble
MYLLRINIEGTINYGLYKYLYPALKAAEGKKSIAGLILVFNSGGGDAASSQLIHDLVKKIRKKKPVYSLALGICASGAYWIASASTKIYAIDTSLIGSIGVISIRPNVKKLMEKIGVDVMVYKSGKYKDMTSPFSEPNEEEKSVYQRLLDDIFEKFKRSVAEDRGIPSEKIDEIANGMVYSAKMAADNGLIDRIANYDDLVSDLTKEVGKRLKVKEFYIRKPLLQRLLGILEHHHHHH	not soluble
MDPGKKKQHICHIQGCGKVYGKTSHLRAHLRWHTGER	soluble
MVEDTKTQMAAAISATLVFAARRRPLFCSLSSSSSSKPNTRKLVLYSKPGCCLCDGLKEKLHAAFTLSTGPDSLNDVTLQVRDITTNPEWERAYQYEIPVLAKENSDGKEEVLPRLSPRLSAELIQKKLLAAFS	not soluble
MKEILDHYGSLLSRIDDWFRACLDSSGDRIRCADGCSDCCRGLFDITLLDAAFLRRGFDRLDPEVREQVLVRCRERIAILRLVWPEFDQPFILNMRPDDEWEALMPDDDETPCPLLDRHGRCLVYEHRPMTCRLHGLPLVDVSGEIMHDEWCTLNCIDADPLADPALRGDFDRIFTEEVRLIRTFAGRLLGHPLSEVDTFIPTALVIAFDSINWLSWGNRLAALSLSDPRSKLEHHHHHH	not soluble
MKVDRPSRSPFPQRIPQKFWKKINDENWIDVFDCKKIKERKQEFFWYKLDPLDLAKAVAMASQMNDRGVIPYPTPTLNDALNDHAALIRALNDSSIKKLFKEVRFFCTMRKRFSTIRNNPISVKREPTNF	soluble
MKLHLEIWRQAGPNSEGHFEPIDVNDAVPQMSVLELLDHVNTGLIEEGKEPFVFASDCREGICGTCGLLVNGRPHGLDKNKPSCQQRLDHVPDGSTLKIEPLRSAAYPVVKDLLVDRSALDRVLEKGGFVSINAGTAPDADTLHQNHESAELALDH	not soluble
MSLYYKVAVSGSGKVLNVFSSEELLIGERVWLNWRNGKVKGYVLERSLSHENEATPSERDGKSFLSEGHVEIAKWVSERFFSPLGMVFDLFFPQGIDDYKEEVVVSESPFLDFDRMTLRDFLENFGEKALKEMVKKGLVRVEKNFYVKEPRPRVKKRLFLKKRISEIIREHLTVKQRMVVEYLQFNDGVPLEELLEDLEVSKSVIETLQRKNIVEIVSGDVFPKKRRILRGDFKGNISKENLFFGPTGSGKTEALFELIDVYSRKGTVLFLVPEVSVLTHTLSRLKGAFPDLKIGIYHSYLSRARKNLEWYKAASGKIDVLLGTRSAVFVPVKNLSLLIVDEEHDESFYQHTRPSYDAIVVARKISEVFDVPIILSSATPDLWTYREAKEGRIRTFNFTRRFGSLSVEVVDMRNEEKIGSFAKKTLDRIEETLEEGKRVLIYVRRKGFWGRVQCEVCGYVLKCENCDVSLVYHSDTHSLKCHQCGREYGLVESCPRCGGRLVGRTAGTERVERELKRYFPTRRIARVDREVVDNIMELESYIDKLIRGEIDILVGTRLITKSLSVPEIGLVCIMDVDSLIFNPDYSSSLRTFQLVVQALGRASRGDQGKAIIQTYNPEDTIIRKALEEDVNGFYAEELERRKALGYPPYRHLIQVAVKSKNPEVGKNSLTSLKEFLKGEEVLGPVEHWVFKLRGFYRHHLIVKTEDLERVLPKLEKALRILGIDAIVRVDPPTLEVSDEGHHHHHH	not soluble
ASVKDTYTDRLDDWNGIIAGNQYYDSKNDQMAKLNQELEGKVADSLSSISSQADRIYLWEKFSNYKTSANLTATYRKLEEMAKQVTNPSSRYYQDETVVRTVRDSMEWMHKHVYNSEKSIVGNWWDYEIGTPRAINNTLSLMKEYFSDEEIKKYTDVIEKFVPDPEHFRKTTDNPFKALGGNLVDMGRVKVIAGLLRKDDQEISSTIRSIEQVFKLVDQGEGFYQDGSYIDHTNVAYTGAFGNVLIDGLSQLLPVIQKTKNPIDKDKMQTMYHWIDKSFAPLLVNGELMDMSRGRSISRANSEGHVAAVEVLRGIHRIADMSEGETKQRLQSLVKTIVQSDSYYDVFKNLKTYKDISLMQSLLSDAGVASVPRTSYLSAFNKMDKTAMYNAEKGFGFGLSLFSSRTLNYEHMNKENKRGWYTSDGMFYLYNGDLSHYSDGYWPTVNPYKMPGTTETDAKRADSDTGKVLPSAFVGTSKLDDANATATMDFTNWNQTLTAHKSWFMLKDKIAFLGSNIQNTSTDTAATTIDQRKLESSNPYKVYVNDKEASLTEQEKDYPETQSVFLESSDSKKNIGYFFFKKSSISMSKALQKGAWKDINEGQSDKEVENEFLTISQAHKQNGDSYGYMLIPNVDRATFNQMIKELESSLIENNETLQSVYDAKQGVWGIVKYDDSVSTISNQFQVLKRGVYTIRKEGDEYKIAYYNPETQESAPDQEVFKKLEQHHHHHH	soluble
MNIREIAAKCSKCGYCTTCPTYRIEGWETVSPRGKIQLALKYVDGEIDVDQKIVKDIFKCSVCGLCQEVCPVELPLIDFWEELRRTLVQKGLAPLSVHRKLREILEHHHHHH	not soluble
MGSDKIHHHHHHMKWYADYLSIYDKPFTQAPQAVINQVKDKVRQLATHAPLVSVVAIAHNEEKRILSCLWSLCENQHNYPVEILVINNHSTDHTEEVLKELGVTYFNEYRKGPGFARQCGLNHARGKYHLCIDADTLYPPQYISTMIKVLQDKEVAGAYALWSFLPNEHHLGLFFYETLRDLYLKIQNLNRPELNVRGMAFAFHTETARKEGFRTDILRGEDGSLALALKKYGKLRFVTARKARVLTGYGTISADGSLFSSFKKRAIKGLRSFTALFYSKNNYEDEDSNLIK	not soluble
MALLLVMGIPASGKSTFRRKIQTAHRELLESTSFDDFRMMRTRSSDKNARQTRKSFECHVESCISESTSKIYVIEDIFYLKSMRHPFQKIAKRHGLQFGIIFLKVGIVEALRRNSHRTGIEKQKNETIRKIFEKMEDPDEILENSIVLETDEVEIDVEVVMNKLKFDFTAKKPIVPEVSLKKSHIQKPPPPSKLESLDVLTRRLVSELMQNDKTMNGRKLSDARKKLLIDLSGNLEISNENDPKFLYDLKLKLIEFYDK	not soluble
MSQSDLVTIKNLRFSRSQRVIFDDIDLHVPKGKVTAIMGPSGIGKTTLLRLIGGQLLPEQGEIWFDGENIPTLSRRKLYRARKKMSMLFQSGALFTDLNVFDNVAYPLREHTELDEAMIKTLVLLKLEAVGLRGAAYLMPSELSGGMARRAALARAIALDPELIMYDEPFVGQDPITMGVLVELIRNLNRALGVTSVVVSHDVPEVMSIADWVYLLADGKVIAQGSPQALRDNPDPRVQQFLCGDADGPVPFRFPAQPIEQELFSAK	not soluble
MGHHHHHHSHGTRVTLRFQMKMFESADSTATRSGQDLWAEICSCLPNPEQEDGANNAFSDSFVDSCPEGEGQREVADFAVQPAVKPWAPLQDSEVYLASLEKKLRRIKGLNQEVTSKDMLRTLAQAKKECWDRFLQEKLASEFFVDGLDSDESTLEHFKRWLQPDKVAVSTEEVQYLIPPESQVEKPVAEDEPAAGDKPAAAEQ	soluble
MKAPELLLPAGGLERMRAAYDYGADAVYAGSPRYSLRARNNEFAKLDVLEQGIKEAHERNKKFFLTVNTLPHNSKLKTFVADMEPLIAMKPDALIMADPGLIMTVREKWPEMPIHLSVQANTTNYWGVKFWQNIGVERIILSRELSMEEIAEIRQECPDIELEVFIHGALCIAYSGRCLLSGYFNHRDPNQGTCTNSCRWDYKVHNATESDAGDAQLLQGFNFEKAQEEANQNFEGINGQKRHPYADKVFLIEESNRPGEMMPIMEDEHGTYIMNSKDLRGIEVVEKLAKIGVDSLKVEGRTKSLYYVARVAQSYRKAIDDAVAGRPFDYSLLSELEGLANRGYTSGFLERHQTQDYQNYLTGHSTAKQSQYVGHVTEIDENGWATVEVKNRFAVSDSLEIIHPSGNQTIKLEQMTRKGQPVDVAPGNGIQVKIPNMQGKEKALIARVLNP	not soluble
MGSDKIHHHHHHMEELREAFEEGKPVILIDRNRENEADFVFPAQLITEDVVSFFVTYGKGLFCVTADEEDLLKRGFVKLSSNYGANYFVPVDWGTGTGISALERAETCRKLAEGRYFHEFRYPGHVTVIGGIGFQRRKGHTEASLEISELAGFSRHAVIVEILDEKGNSHNLDYVLKLSEKFSLPVLEMDDVWREFVKRKLLMKKKAEATLPTDFGVFKVVSFENHLDGKEHFAIVKEPLEDPVAVRIHSECVTGDVLSSLRCDCGSQLANFLRYMSAHGGILIYLRQEGRGIGLSNKIAAYSLQDKGLDTVEANRVLGFSEDERDYAPAAQILKALGIERVLLFTNNQRKTVGLEKYGIEVVETKRLYGRVTPHNRFYLSTKMKKLGHELEEIFREVNS	not soluble
MSLKVDQKEEQVQKRLEALDKLTKTLAIVEQYYVDDQNISDLVDKSLSGLLSNLDAHSSFLNEKDFNDMKIQTNGEFGGLGITVGMKDGALTVVSPIEGTPADKAGIKSGDIILKINDEATLGINLNDAVDKMRGKPKTQITLTIFRKGATKPFDVTLTREIIKIESVYAKMIENENILYLRVTNFDKNVVDVASKELKKYPNVKGVILDLRNNPGGLLNQAIGLVNLFVDKGVIVSQKGRIASENQEYKADPKNKISNASLVVLVNGGSASASEIVSGALQDLKRGVIVGENTFGKGSVQQIIPINKTEALRLTIARYYLPSGRTIQAVGVKPDIEVFPGKVNTQEGHHHHHH	soluble
MSFVPCTTAIYAFSKNHQPVRTVQSGETFVIETYDCFQNQITSSETPFDSIDWNHINPATGPIYIEGAEPGDILAVKIEQIRLKGQGVMAVGPGLGVLGDRIPQFEAKMIPVEENRAVFDEHLSIPLNPMIGVIGVAPSGEDVSCGTPGPHGGNMDTKLITTGATVYFPVFVKGALFALGDLHAAMGDGEIGVSGIEISGEVTVTVRVMKGYSLNHPLLQNDDGIATIVSAKTLDEAVKQSVEEMVNLLLPHTPLTLNHLTMVLSAVGQTQISQVVDPLVTARFFVPRFVLEAYGIRLFED	not soluble
